From PMC8904598, “Structural snapshots of V/A-ATPase reveal the rotary catalytic mechanism of rotary ATPases” (Nature Communications, 2022)

Tested on: T1, Nc1ncnc2c1ncn2[C@@H]1O[C@H](COP(=O)(O)OP(=O)(O)OP(=O)(O)O)[C@@H](O)[C@H]1O
T1 construct: holo V/A-ATPase (A3B3D1F1 + E2G2d1a1c12), C-terminal His3 tag on each c subunit, purified from T. thermophilus membranes, nucleotide removed by EDTA/phosphate dialysis, MSP1E3D1/DMPC nanodiscs; models cover V1EG; with V-type ATP synthase subunit D; V-type ATP synthase subunit F; V-type ATP synthase subunit E; V-type ATP synthase subunit G; V-type ATP synthase subunit C; V-type ATP synthase subunit I; V-type ATP synthase subunit K
Test: purified protein
Type: biochemical, Thermus thermophilus
Details: nanodisc enzyme, ATP-Mg, 50 mM Tris-HCl pH 8.0, 100 mM KCl, 25 °C, ATP-regenerating system, all rows carry A/S232A, A/T235S

For “Tth V/A-ATPase (A/S232A, T235S; TSSA mutant), nanodisc-incorporated, nucleotide-free (Thermus thermophilus HB8; Q56403:S232A/Q56403:T235S)”, the Km was 394 µM and the kcat was 22 s⁻¹.
